Assay results reported in paper PMC3880350, “The mononuclear metal center of type-I dihydroorotase from aquifex aeolicus” (BMC Biochemistry, 2013).
Positions count from the first letter of the chain named. In names and notes the source's numbering stands. Values belong to the molecule of their own block, whether it stands above or below them.

Key:
[1] = target: T1, A. aeolicus DHO-ATC complex (DHO active site) (Aquifex aeolicus, UniProt O66990, H180A/H232A); experiment: X-ray crystal structure, […] Å; type: binding; settings: crystal soaked in 15 mM dihydroorotate, 1 mM PALA, pH 5; DHO active site with one zinc
T1 construct: gene pyrC; both subunits full length with 3 kDa N-terminal His tag (pRSETC), expressed separately in E. coli BL21(DE3), mixed equimolar, dodecamer (6 DHO + 6 ATC) isolated by gel filtration; DHO 422 residues; with Aspartate carbamoyltransferase catalytic subunit

[2] = target: T2, A. aeolicus DHO-ATC complex (ATC active site) (Aquifex aeolicus, UniProt O66726); experiment: X-ray crystal structure, […] Å; type: binding; settings: crystal soaked in 1 mM PALA, 15 mM dihydroorotate, pH 5, bisubstrate analogue, mutations only in the DHO partner
T2 construct: gene pyrB; both with 3 kDa N-terminal His tag (pRSETC), E. coli BL21(DE3); with Dihydroorotase

[3] = target: the molecule itself; experiment: crystal structure; DHO double mutant-ATC complex, hanging drop, room temperature, 30% ethylene glycol with barium chloride; crystals soaked in 1 mM PALA and 15 mM dihydroorotate at pH 5; 2.2 Å
[4] = target: T3, Aquifex aeolicus dihydroorotase (DHO) subunit, His180Ala/His232Ala double mutant (Aquifex aeolicus, UniProt O66990 1-422, His180Ala | His232Ala); experiment: SEC; purified subunits mixed in an equimolar ratio; complex isolated by gel filtration on a Sephacryl S-300 column; composition analysed by SDS-PAGE and ATC and DHO assays; settings: both partners purified
T3 construct: Dihydroorotase (pyrC) of Aquifex aeolicus with His180 and His232 replaced by alanine; made by PCR on the plasmid that encodes the DHO subunit; 422 C-alpha atoms in the structure; Same construct as m1 with the two point mutations; In the crystal one zinc and dihydroorotate in the active site; also called DHO Double Mutant; mutant DHO
T3 sequence: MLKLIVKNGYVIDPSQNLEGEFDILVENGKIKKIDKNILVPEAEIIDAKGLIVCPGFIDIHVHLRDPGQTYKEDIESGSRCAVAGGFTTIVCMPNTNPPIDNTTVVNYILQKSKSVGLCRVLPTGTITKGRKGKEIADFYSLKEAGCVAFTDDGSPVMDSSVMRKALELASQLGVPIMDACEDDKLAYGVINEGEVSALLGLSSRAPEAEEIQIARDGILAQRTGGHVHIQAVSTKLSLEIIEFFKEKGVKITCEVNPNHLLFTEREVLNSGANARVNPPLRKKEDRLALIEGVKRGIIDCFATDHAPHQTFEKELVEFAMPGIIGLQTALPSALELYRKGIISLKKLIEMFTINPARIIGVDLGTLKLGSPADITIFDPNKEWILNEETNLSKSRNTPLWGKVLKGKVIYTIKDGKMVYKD

[5] = target: T4, Aquifex aeolicus dihydroorotase (DHO) subunit, His180Ala mutant (Aquifex aeolicus, UniProt O66990 1-422, His180Ala); experiment: as above; settings: both partners purified
T4 construct: Dihydroorotase (pyrC) of Aquifex aeolicus with His180 replaced by alanine; made by PCR on the plasmid that encodes the DHO subunit; Same construct as m1 with the point mutation
T4 sequence: T3 sequence with A232H

[6] = target: T5, Aquifex aeolicus dihydroorotase (DHO) subunit, His232Ala mutant (Aquifex aeolicus, UniProt O66990 1-422, His232Ala); experiment: as above; settings: both partners purified
T5 construct: Dihydroorotase (pyrC) of Aquifex aeolicus with His232 replaced by alanine; made by PCR on the plasmid that encodes the DHO subunit; Same construct as m1 with the point mutation
T5 sequence: T3 sequence with A180H

[7] = target: T6, Aquifex aeolicus dihydroorotase (DHO) subunit, wild type (Aquifex aeolicus, UniProt O66990 1-422); experiment: as above; settings: both partners purified
T6 construct: Dihydroorotase (pyrC) of Aquifex aeolicus; gene amplified by PCR from the genome and inserted into pRSETC; One zinc ion per subunit; also called Wild Type DHO; A. aeolicus DHO
T6 sequence: T3 sequence with A180H, A232H

[8] = substrate: O=C1C[C@@H](C(=O)O)NC(=O)N1; experiment: colorimetric carbamoyl aspartate formation, saturation curve; type: biochemical, Aquifex aeolicus
Source text: colorimetric carbamoyl aspartate formation, saturation curve on A. aeolicus DHO-ATC complex (DHO active site)

[9] = 250 mM Tris acetate (Figure 7; Methods: 50 mM), pH 8.3, 72°C, mutant DHO reconstituted with native ATC

Molecule: O=C1C[C@@H](C(=O)O)NC(=O)N1 [dihydroorotate]
X-ray crystal structure, 2.2 Å [1]: one DHO subunit with one zinc atom and dihydroorotate in its active site

Molecule: O=C(O)C[C@H](NC(=O)CP(=O)(O)O)C(=O)O [PALA]
X-ray crystal structure, 2.2 Å [2]: bisubstrate analog, N-phosphoacetyl L-aspartate (PALA) bound to the active site of the A. aeolicus ATC

binding result [4]: binds
binding result [5]: binds
binding result [6]: binds
binding result [7]: binds
B1: Aquifex aeolicus aspartate transcarbamoylase (ATC) subunit (enzyme)
chain: MRSLISSLDLTREEVEEILKYAKEFKEGKEETIKASAVLFFSEPSTRTRLSFEKAARELGIETYLVSGSESSTVKGESFFDTLKTFEGLGFDYVVFRVPFVFFPYKEIVKSLNLRLVNAGDGTHQHPSQGLIDFFTIKEHFGEVKDLRVLYVGDIKHSRVFRSGAPLLNMFGAKIGVCGPKTLIPRDVEVFKVDVFDDVDKGIDWADVVIWLRLQKERQKENYIPSESSYFKQFGLTKERFEKVKLYMHPGPVNRNVDIDHELVYTEKSLIQEQVKNGIPVRKAIYKFLWT
notes: Aspartate transcarbamoylase (pyrB) of Aquifex aeolicus; gene amplified by PCR from the genome and inserted into pRSETC; 291 residues superposed in the structure; also called native ATC; pyrB product
stoichiometry N [3]: 3

B2: A. aeolicus DHO-ATC complex (DHO active site) (Aquifex aeolicus VF5) (protein)
chain: T3 sequence with A180H, A232H
notes: both subunits full length with 3 kDa N-terminal His tag (pRSETC), expressed separately in E. coli BL21(DE3), mixed equimolar, dodecamer (6 DHO + 6 ATC) isolated by gel filtration; DHO 422 residues; with Aspartate carbamoyltransferase catalytic subunit
Km ([8]; no exogenous zinc, 250 mM Tris acetate (Figure 4; Methods: 50 mM), pH 8.3, 75°C (Figure 4: 72°C), DHO reverse direction (hydrolysis)): 1520 ± 300 µM

B3: A. aeolicus DHO-ATC complex (DHO active site) (Aquifex aeolicus VF5; H180A) (protein)
chain: T3 sequence with A232H
notes: as for B2
Km [8, 9]: 1650 ± 260 µM

B4: A. aeolicus DHO-ATC complex (DHO active site) (Aquifex aeolicus VF5; H180A/H232A) (protein)
chain: T3 sequence
notes: as for B2
Km [8, 9]: 1550 ± 300 µM

B5: A. aeolicus DHO-ATC complex (DHO active site) (Aquifex aeolicus VF5; H232A) (protein)
chain: T3 sequence with A180H
notes: as for B2
Km [8, 9]: 1340 ± 220 µM
